This note sets out measurements from paper PMC5587665.

For assay [1], the target named is GTP-γS-tubulin-dimer (porcine brain tubulin) (porcine) (UniProt P02550). Nature of the assay: SEC; size-exclusion chromatography at 4 °C; tubulin with the GTP analog GTP-γS; 1:1 mixture of each 1 mM (so in the source) CP525 and tubulin-dimer; fractions checked by SDS-PAGE.
Assay [2] concerns the target GTP-γS-tubulin-dimer (porcine brain tubulin), P02550;Q767L7. Nature of the assay: SEC-MALS.
Assay [3] has the same target. The assay is described as follows: DLS. The following applies: room temperature; 1:1 mixture.

“CP525 (7 x His-tag and human CRMP2 residues 1-525) (from UniProt Q16555 1-525) (domain or fragment)”: in assay [1], the stoichiometry N (CP525:tubulin-dimer) is 1.
For the substance “CP525 (7 x His-tag and human CRMP2 residues 1-525) (from UniProt Q16555) K483A; R485A; R487A”, in assay [2], the other: Molar mass of the mixture, Peak 1 stood at 95.9 kDa and the other: Molar mass of the mixture, Peak 2 stood at 86.2 kDa. Also, in assay [3], the other: %Polyd (polydispersity of the mixture) amounted to 64.9%, the other: MW-R (of the mixture) is 538 kDa and the other: Rh (hydrodynamic radius of the mixture) was 8.8 nm.
The like results for “CP525 (7 x His-tag and human CRMP2 residues 1-525) (from UniProt Q16555) T246A; N247A” were, in that order, 214 kDa, 113 kDa, 52%, 524 kDa and 8.6 nm.
